The target in the test is recombinant human tau 2N4R (as used in SPR) (human, UniProt P10636-8 1-441). In words: SPR. (In general: SPR reads the build-up and loss of mass on a sensor chip optically.)

B1: Recombinant human SORL1 aa 82-753 protein (domain or fragment, UniProt Q92673 82-753, looked up)
chain: SAALQPEPIKVYGQVSLNDSHNQMVVHWAGEKSNVIVALARDSLALARPKSSDVYVSYDYGKSFKKISDKLNFGLGNRSEAVIAQFYHSPADNKRYIFADAYAQYLWITFDFCNTLQGFSIPFRAADLLLHSKASNLLLGFDRSHPNKQLWKSDDFGQTWIMIQEHVKSFSWGIDPYDKPNTIYIERHEPSGYSTVFRSTDFFQSRENQEVILEEVRDFQLRDKYMFATKVVHLLGSEQQSSVQLWVSFGRKPMRAAQFVTRHPINEYYIADASEDQVFVCVSHSNNRTNLYISEAEGLKFSLSLENVLYYSPGGAGSDTLVRYFANEPFADFHRVEGLQGVYIATLINGSMNEENMRSVITFDKGGTWEFLQAPAFTGYGEKINCELSQGCSLHLAQRLSQLLNLQLRRMPILSKESAPGLIIATGSVGKNLASKTNVYISSSAGARWREALPGPHYYTWGDHGGIITAIAQGMETNELKYSTNEGETWKTFIFSEKPVFVYGLLTEPGEKSTVFTIFGSNKENVHSWLILQVNATDALGVPCTENDYKLWSPSDERGNECLLGHKTVFKRRTPHATCFNGEDFDRPVVVSNCSCTREDYECDFGFKMSEDLSLEVCVPDPEFSGKSYSPPVPCPVGSTYRRTRGYRKISGDTCSGGDVEARLEGELVPCP
Consider B1, for which the Kd (as a rule, the concentration at which binding is half-saturated) was 41 ± 9 nM.

Source of the values: doi:10.1101/2020.11.17.386581 (bioRxiv, 2020).
